Key:
Assay in all cases: cell-based or functional assay
[1] = biological target: human GCG-R (human) (UniProt P47871)
[2] = biological target: human GLP-R (human) (UniProt P43220)
[3] = biological target: human GIP-R (human) (UniProt P48546)
Sequence of human GIP-R (human) (P48546 22-466): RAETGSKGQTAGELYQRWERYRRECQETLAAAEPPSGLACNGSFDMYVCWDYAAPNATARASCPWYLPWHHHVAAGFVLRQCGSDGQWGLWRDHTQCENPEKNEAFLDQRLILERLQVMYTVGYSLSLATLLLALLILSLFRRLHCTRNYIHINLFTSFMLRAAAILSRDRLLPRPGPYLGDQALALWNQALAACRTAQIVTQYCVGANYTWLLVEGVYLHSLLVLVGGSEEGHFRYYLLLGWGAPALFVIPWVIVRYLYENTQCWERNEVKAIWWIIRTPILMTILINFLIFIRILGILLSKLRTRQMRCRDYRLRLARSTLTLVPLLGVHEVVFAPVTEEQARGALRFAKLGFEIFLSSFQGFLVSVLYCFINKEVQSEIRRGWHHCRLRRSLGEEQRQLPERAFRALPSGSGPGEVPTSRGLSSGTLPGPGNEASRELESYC

Sequence of Dulaglutide (Fc fusion) (chain): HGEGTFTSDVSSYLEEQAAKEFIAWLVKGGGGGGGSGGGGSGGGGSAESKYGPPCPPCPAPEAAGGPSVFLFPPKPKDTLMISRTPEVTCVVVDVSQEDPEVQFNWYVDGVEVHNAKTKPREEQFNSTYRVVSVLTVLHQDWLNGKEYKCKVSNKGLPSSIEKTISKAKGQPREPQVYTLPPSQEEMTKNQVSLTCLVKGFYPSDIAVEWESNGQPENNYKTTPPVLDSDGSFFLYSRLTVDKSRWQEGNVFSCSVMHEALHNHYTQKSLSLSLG
Sequence of human GLP-R (human) (P43220 24-463): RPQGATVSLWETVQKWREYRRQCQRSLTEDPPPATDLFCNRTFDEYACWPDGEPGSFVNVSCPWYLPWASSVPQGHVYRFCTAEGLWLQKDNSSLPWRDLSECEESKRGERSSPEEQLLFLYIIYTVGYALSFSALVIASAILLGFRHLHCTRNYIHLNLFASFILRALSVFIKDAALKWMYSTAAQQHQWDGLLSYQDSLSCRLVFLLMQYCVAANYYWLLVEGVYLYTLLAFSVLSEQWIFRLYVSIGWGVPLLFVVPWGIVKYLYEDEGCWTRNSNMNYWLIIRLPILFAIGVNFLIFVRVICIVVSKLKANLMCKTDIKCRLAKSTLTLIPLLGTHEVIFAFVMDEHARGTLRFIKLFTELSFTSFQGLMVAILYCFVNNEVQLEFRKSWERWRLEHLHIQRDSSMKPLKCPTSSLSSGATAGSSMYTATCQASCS
Sequence of human GCG-R (human) (P47871 26-477): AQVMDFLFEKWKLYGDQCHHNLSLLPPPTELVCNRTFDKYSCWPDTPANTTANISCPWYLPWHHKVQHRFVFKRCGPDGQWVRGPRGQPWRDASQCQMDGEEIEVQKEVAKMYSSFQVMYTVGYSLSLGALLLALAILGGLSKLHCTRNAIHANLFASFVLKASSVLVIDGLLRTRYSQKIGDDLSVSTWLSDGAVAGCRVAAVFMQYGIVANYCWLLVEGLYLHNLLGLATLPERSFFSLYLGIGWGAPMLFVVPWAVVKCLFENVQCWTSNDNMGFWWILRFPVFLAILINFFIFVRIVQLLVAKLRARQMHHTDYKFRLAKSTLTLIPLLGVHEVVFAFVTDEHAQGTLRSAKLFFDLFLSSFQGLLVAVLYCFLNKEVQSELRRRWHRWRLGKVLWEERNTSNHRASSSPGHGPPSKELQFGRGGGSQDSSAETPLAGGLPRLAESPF

Row | % max GCG, human GCG-R (cAMP assay) [1] | EC50 [nM], human GCG-R (cAMP assay) [1] | % max GLP-1, human GLP-R (cAMP assay) [2] | EC50 [nM], human GLP-R (cAMP assay) [2] | % max GIP, human GIP-R (cAMP assay) [3] | EC50 [nM], human GIP-R (cAMP assay) [3] | EC50 [nM], GLP1-R (cAMP assay) [2] | EC50 [nM], GIP-R (cAMP assay) [3] | Substance
1 | 1.6% | > 600 nM | 98.2% | 0.129 nM | 13.8% | > 600 nM |  |  | Dulaglutide (Fc fusion)
2 |  |  |  |  |  |  | > 600 nM | > 600 nM | G3Fc only (from UniProt P0DOX5 223-449)
